Test results published in publication PMC3742808.
Read-outs that look alike come from different tables or passages of the source.

What was measured:
[1] = target: recombinant human APC/C (without CDH1) (human) (UniProt Q9H1A4); assay: enzyme inhibition
[2] = target: recombinant human APC/C (without CDH1) (human) (UniProt Q9H1A4); assay: enzyme inhibition; remark: listed apart in the source

Substance: EMI1^T (synthetic peptide corresponding to the EMI1 C-terminal tail)
- Ki [1]: 13 µM
- Ki [2]: 48 µM
